These results are taken from patent publication US20170306033A1 (Amgen, published 2017).

Where a chain is given by its changes, count along the chain named.

T1: human PAC1 receptor (human, UniProt P41586 21-468)
T1 sequence: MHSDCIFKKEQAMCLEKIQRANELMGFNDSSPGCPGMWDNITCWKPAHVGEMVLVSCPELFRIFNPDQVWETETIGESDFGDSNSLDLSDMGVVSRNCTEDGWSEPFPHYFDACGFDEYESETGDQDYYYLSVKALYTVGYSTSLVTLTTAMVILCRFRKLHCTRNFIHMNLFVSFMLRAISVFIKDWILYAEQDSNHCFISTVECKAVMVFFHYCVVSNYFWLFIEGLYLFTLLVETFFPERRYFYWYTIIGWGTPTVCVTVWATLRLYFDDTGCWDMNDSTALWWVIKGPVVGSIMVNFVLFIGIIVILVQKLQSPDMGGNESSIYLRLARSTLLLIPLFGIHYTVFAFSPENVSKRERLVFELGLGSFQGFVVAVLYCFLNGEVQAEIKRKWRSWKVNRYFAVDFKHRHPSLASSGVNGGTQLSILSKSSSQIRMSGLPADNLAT

B1: iPS:327104 (bispecific antibody, human IgG1, kappa, lambda, N297G)
light 1: EIVLTQSPATLSLSPGERATLSCRASQSVGRSLHWYQQKPGQAPRLLIKYASQSLSGIPARFSGSGSGTDFTLTISSLEPEDFAVYYCHQSSRLPFTFGPGTKVDIKRTVAAPSVFIFPPSDEQLKSGTASVVCLLNNFYPREAKVQWKVDNALQSGNSQESVTEQDSKDSTYSLESTLTLSKADYEKHKVYACEVTHQGLSSPVTKSFNRGEC
heavy 1: not shown
light 2: not shown
heavy 2: not shown
B2: iPS:326654 (bispecific antibody, human IgG2, kappa, lambda)
light 1: B1 light 1
heavy 1: QVQLVESGGGVVQPGRSLRLSCAASGFTFSRFAMHWVRQAPGKGLEWVAVISYDGGNKYYAESVKGRFTISRDNSKNTLYLQMNSLRAEDTALFYCARGYDVLTGYPDYWGQGTLVTVSSASTKGPSVFPLAPCSRSTSESTAALGCLVKDYFPEPVTVSWNSGALTSGVHTFPAVLQSSGLYSLKSVVTVPSSNFGTQTYTCNVDHKPSNTKVDKTVERKCCVECPPCPAPPVAGPSVFLFPPKPKDTLMISRTPEVTCVVVDVSHEDPEVQFNWYVDGVEVHNAKTKPREEQFNSTFRVVSVLTVVHQDWLNGKEYKCKVSNKGLPAPIEKTISKTKGQPREPQVYTLPPSREEMTKNQVSLTCLVDGFYPSDIAVEWESNGQPENNYDTTPPMLDSDGSFFLYSDLTVDKSRWQQGNVFSCSVMHEALHNHYTQKSLSLSPGK
light 2: not shown
heavy 2: not shown
B3: iPS:327106 (bispecific antibody, human IgG1, kappa, lambda, N297G)
light 1: not shown
heavy 1: not shown
light 2: not shown
heavy 2: EVQLVESGGGLVKPGGSLRLSCAASGFTFGNAWMSWVRQAPGKELEWVGRIKSKTDGGTTDYAAPVKGRFTISRDDSKNTLYLQMNSLKTEDTAVYFCTTDRTGYSISWSSYYYYYGMDVWGQGTTVTVSSASTKGPSVFPLAPSSKSTSGGTAALGCLVKDYFPEPVTVSWNSGALTSGVHTFPAVLQSSGLYSLESVVTVPSSSLGTQTYICNVNHKPSNTKVDKKVEPKSCDKTHTCPPCPAPELLGGPSVFLFPPKPKDTLMISRTPEVTCVVVDVSHEDPEVKFNWYVDGVEVHNAKTKPCEEQYGSTYRCVSVLTVLHQDWLNGKEYKCKVSNKALPAPIEKTISKAKGQPREPQVYTLPPSRKEMTKNQVSLTCLVKGFYPSDIAVEWESNGQPENNYKTTPPVLKSDGSFFLYSKLTVDKSRWQQGNVFSCSVMHEALHNHYTQKSLSLSPGK
B4: iPS:327105 (bispecific antibody, human IgG1, kappa, lambda, N297G)
light 1: DIQMTQSPSSLSASVGDRITITCRASQSISRYLNWYQQKPGKAPKLLIYAASSLQSGIPSRFSGSGSGTDFTLTINSLQPEDFATYFCQQSYSPPFTFGEGTKVDIKRTVAAPSVFIFPPSDEQLKSGTASVVCLLNNFYPREAKVQWKVDNALQSGNSQESVTEQDSKDSTYSLESTLTLSKADYEKHKVYACEVTHQGLSSPVTKSFNRGEC
heavy 1: not shown
light 2: not shown
heavy 2: B3 heavy 2
B5: iPS:327107 (bispecific antibody, human IgG1, kappa, lambda, N297G)
light 1: DIQLTQSPSFLSASVGDRVTITCRASQSIGRSLHWYQQKPGKAPKLLIKYASQSLSGVPSRFSGSGSGTEFTLTISSLQPEDFATYYCHQSSRLPFTFGEGTKVDIKRTVAAPSVFIFPPSDEQLKSGTASVVCLLNNFYPREAKVQWKVDNALQSGNSQESVTEQDSKDSTYSLESTLTLSKADYEKHKVYACEVTHQGLSSPVTKSFNRGEC
heavy 1: not shown
light 2: not shown
heavy 2: B3 heavy 2
B6: iPS:327108 (bispecific antibody, human IgG1, kappa, lambda, N297G)
light 1: B1 light 1 with P100E
heavy 1: not shown
light 2: not shown
heavy 2: B3 heavy 2
B7: iPS:326626 (bispecific antibody, human IgG2, kappa, lambda)
light 1: not shown
heavy 1: QVQLQQSGPGLVKPSQTLSLTCAISGDSVSSNSATWNWIRQSPSRGLEWLGRTYYRSKWSNHYAVSVKSRITINPDTSKSQFSLQLNSVTPEDTAVYYCARGTWKQLWFLDHWGQGTLVTVSSASTKGPSVFPLAPCSRSTSESTAALGCLVKDYFPEPVTVSWNSGALTSGVHTFPAVLQSSGLYSLKSVVTVPSSNFGTQTYTCNVDHKPSNTKVDKTVERKCCVECPPCPAPPVAGPSVFLFPPKPKDTLMISRTPEVTCVVVDVSHEDPEVQFNWYVDGVEVHNAKTKPREEQFNSTFRVVSVLTVVHQDWLNGKEYKCKVSNKGLPAPIEKTISKTKGQPREPQVYTLPPSREEMTKNQVSLTCLVDGFYPSDIAVEWESNGQPENNYDTTPPMLDSDGSFFLYSDLTVDKSRWQQGNVFSCSVMHEALHNHYTQKSLSLSPGK
light 2: not shown
heavy 2: not shown
B8: iPS:327091 (bispecific antibody, human IgG1, kappa, N297G)
light 1: not shown
heavy 1: not shown
light 2: EIVLTQSPGTLSLSPGERATLSCRASQSVSSGYLTWYQQKPGQAPRLLIYGASSRATGIPDRFSGSGSGTDFTLTISRLEPEDFAVYYCQQYGNSLSRFGQGTKLEIKRTVAAPSVFIFPPSDEQLKSGTASVVCLLNNFYPREAKVQWKVDNALQSGNSQESVTEQDSKDSTYSLKSTLTLSKADYEKHKVYACEVTHQGLSSPVTKSFNRGEC
heavy 2: not shown
B9: iPS:327092 (bispecific antibody, human IgG1, kappa, N297G)
light 1: not shown
heavy 1: not shown
light 2: B8 light 2
heavy 2: not shown
B10: iPS:327093 (bispecific antibody, human IgG1, kappa, N297G)
light 1: B5 light 1 with E100P
heavy 1: not shown
light 2: B8 light 2
heavy 2: not shown
B11: iPS:327023 (bispecific antibody, human IgG1, kappa, N297G)
light 1: B4 light 1
heavy 1: not shown
light 2: B8 light 2 with Q101K
heavy 2: not shown
B12: iPS:327025 (bispecific antibody, human IgG1, kappa, N297G)
light 1: B5 light 1
heavy 1: not shown
light 2: B8 light 2 with Q101K
heavy 2: not shown
B13: iPS:327094 (bispecific antibody, human IgG1, kappa, N297G)
light 1: B1 light 1
heavy 1: not shown
light 2: B8 light 2
heavy 2: not shown
B14: iPS:327024 (bispecific antibody, human IgG1, kappa, N297G)
light 1: not shown
heavy 1: not shown
light 2: B8 light 2 with Q101K
heavy 2: not shown
B15: iPS:327103 (bispecific antibody, human IgG1, kappa, lambda, N297G)
light 1: B5 light 1 with E100P
heavy 1: not shown
light 2: not shown
heavy 2: not shown

For one assay, the target named is human CGRP receptor (human, UniProt Q16602 23-461; O60894 27-148). The experiment in a line: cell-based or functional assay.
human CGRP receptor, sequence (Q16602 23-461 limits assumed, chain 1 of 2): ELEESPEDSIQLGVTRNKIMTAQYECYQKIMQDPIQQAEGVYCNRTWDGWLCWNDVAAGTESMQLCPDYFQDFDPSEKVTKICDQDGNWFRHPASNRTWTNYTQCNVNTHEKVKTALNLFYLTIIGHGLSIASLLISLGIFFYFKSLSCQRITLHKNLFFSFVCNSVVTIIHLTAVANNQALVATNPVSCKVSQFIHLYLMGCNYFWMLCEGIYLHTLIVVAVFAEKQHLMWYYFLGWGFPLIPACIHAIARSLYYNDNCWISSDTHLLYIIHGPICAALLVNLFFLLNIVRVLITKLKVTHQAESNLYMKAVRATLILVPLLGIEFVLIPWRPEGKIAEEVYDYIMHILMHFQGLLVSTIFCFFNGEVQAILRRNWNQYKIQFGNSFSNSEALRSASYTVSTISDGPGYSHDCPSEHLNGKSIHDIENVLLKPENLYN
human CGRP receptor, sequence (O60894 27-148 limits assumed, chain 2 of 2): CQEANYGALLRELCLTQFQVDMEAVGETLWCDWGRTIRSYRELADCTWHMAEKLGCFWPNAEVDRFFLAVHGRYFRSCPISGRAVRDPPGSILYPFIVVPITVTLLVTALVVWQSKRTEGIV
For B1, the “% inhibition of human CGRPR” value stood at 81%.
As to B2, the “% inhibition of human CGRPR” value is 79%.
As to B3, the “% inhibition of human CGRPR” value was 71%.
With B4, the “% inhibition of human CGRPR” value amounted to 81%.
As to B5, the “% inhibition of human CGRPR” value is 76%.
Turning to B6, the “% inhibition of human CGRPR” value came to 66%.
On to B7, for which the “% inhibition of human CGRPR” value amounted to 96%.
The same measure, in the same setting: the value for B8 was 65%.
Turning to B9, the “% inhibition of human CGRPR” value was 73%.
Consider B10, for which the “% inhibition of human CGRPR” value came to 70%.
Same read-out and setting: the value for B11 was 74%; that for B12 was 76%; that for B13 was 73%.
For B14, the “% inhibition of human CGRPR” value stood at 75%.
On the same count and under the same terms, the value for B15 was 82%.

A further assay concerns the target T1, human PAC1 receptor. The experiment in a line: cell-based or functional assay.
For the molecule B1, the “% inhibition of human PAC1” value came out at 95%.
For the molecule B2, the “% inhibition of human PAC1” value amounted to 99%.
Regarding B3, the “% inhibition of human PAC1” value was determined as 6%.
Take B4: the “% inhibition of human PAC1” value came out at 63%.
In the case of B5, the “% inhibition of human PAC1” value came to 22%.
Turning to B6, the “% inhibition of human PAC1” value turned out to be 74%.
Consider B7, for which the “% inhibition of human PAC1” value is 86%.
For B8, the “% inhibition of human PAC1” value was determined as 67%.
Turning to B9, the “% inhibition of human PAC1” value amounted to 52%.
B10: the “% inhibition of human PAC1” value stood at 68%.
For the molecule B11, the “% inhibition of human PAC1” value amounted to 32%.
For the molecule B12, the “% inhibition of human PAC1” value came out at 21%.
In the case of B13, the “% inhibition of human PAC1” value turned out to be 91%.
Regarding B14, the “% inhibition of human PAC1” value turned out to be 7%.
For the molecule B15, the “% inhibition of human PAC1” value was found to be 21%.
